Data taken from patent EP4353742A1 (Todd Pharm Co., Ltd., dated 2024).
Positions count from the first letter of the chain named.

B1: FGF21 variant ① (Gln184Glu & Gln201His & Ala208Thr) (ligand)
chain: DSSPLLQFGGQVRQRYLYTDDAQQTEAHLEIREDGTVGGAADQSPESLLQLKALKPGVIQILGVKTSRFLCQRPDGALYGSLHFDPEACSFRELLLEDGYNVYQSEAHGLPLHLPGNKSPHRDPAPRGPARFLPLPGLPPALPEPPGILAPEPPDVGSSDPLSMVGPSHGRSPSYTS
B2: FGF21 variant ③ (combination of variants ① and ②) (ligand)
chain: B1 chain with S163G, P167G, S168G
B3: FGF21 variant ② (Ser195Gly & Pro199Gly & Ser200Gly) (ligand)
chain: B1 chain with E152Q, S163G, P167G, S168G, H169Q, T176A

biological target: FGFR1c; test: cell-based or functional assay

| Binder | EC50 of FGFR1c activation (luciferase reporter, HEK293 cells expressing FGFR1c and β-Klotho), fold increase compared to the wild type [fold] |
| --- | --- |
| B1 | 1.73 |
| B2 | 6.03 |
| B3 | 4.38 |
